# Test: soluble on expression in E. coli; label from the status in PepcDB or PDB records
row,Sequence,soluble on expression in E. coli
1,MKLLAITSCPNGIAHTYMAAENLQKAADRLGVSIKVETQGGIGVENKLTEEEIREADAIIIAADRSVNKDRFIGKKLLSVGVQDGIRKPEELIQKALNGDIPVY,not soluble
2,MSLSDLTIQKVESRILDVPLIRPHGFATTTSTEQHILLVSVHLENGVIGYGEGVVPGGPWWGGESVETMKALVDGYLAPVLIGRAVSELAGIMADLERVVARARYAKAAVDVAMHDAWARSLNVPVRDLLGGTVRDKVDVTWALGVLPLDVAVAEIEERIEEFGNRSFKLKMGAGDPAEDTRRVAELAREVGDRVSLRIDINARWDRRTALHYLPILAEAGVELFEQPTPADDLETLREITRRTNVSVMADESVWTPAEALAVVKAQAADVIALKTTKHGGLLESKKIAAIAEAGGLACHGATSLEGPIGTAASLQFAASTKAISYGTELFGPQLLKDTYIVQEFEYKDGQVAIPQGPGLGVDVDMDKVNFYTRKEGHHHHHH,soluble
3,MAHHHHHHMHFSPLVFHIHFTRSFSLFFRFCMQLATREGWWEEGGEKEGVFEGAIEEKTVMSFFFDEDSGDEPATKRHCTEQQQRAQGRPHGGFFNGNGEKDEDEDERPVLARAGSDRVGLRLLQGMQKPTSSSSSVLLSGKEKMRVVEAYVPLSVGGFMESSAETAVDNLSQIKPGNVMCLRSPASSASQASTGMNFVRETDLTEEERRYGKRLSSNMTQELFEVGRVDRDTGMLEAIFLDGTRRNLKAYAVRPAGFVEKELFRQWKRDPNSRPVRTVYAAPQDANASPSLSSTTQTTRTTAVDSAKRKNNTAAVELMPWWVSPQLIVRVVEKSAGDLFGKKFVVKSLSRKEGKIRLAPWQRSAGNGESAENSPVDIVGCEALETIVPKVGEQGIIVLGNMRGELVKVMERHRDVNGELASLKVCSTLTGNEFTVGPHEVCQLACPRP,not soluble
4,MSTSNAQSGRAAAIARRNAQVKGKGYTASAAPAAPRKPAAPVAEPVVAAAPAPSQPSRSRRKVSVAPTATPAASAAGREAAKLKRQQQKNGKSSAGAANAMPHPKAKAKQKPEEPIVEPRQAKAEKPTKRSERRTGVKPQVASQQPSGRLQSKAYRKAQAKGKAGQEAFKSNGSSQSGAKAKLANPDASTREIAQQVRAERCAQGKTCSTGGSRPMRKRRNAKEAPQKVGESQTLHGQSVSGTQVGQGEKKMTGSESGACQLVSGTEYLGAEEFSKNCDVQPTPQPAKVTQTQTTRGQVVSGSTKVGRSDKMTGNETGTCSAITGTEYLPADQSKMYCGETPAKSKATGFSVMSQATQKSEQKVTGGDSRKSQSTTFKPKNPASAPHKVMPSQTAKGNTTTGSQVGRLESVTGGERGSCHAVTGTGYQGAEEAKACDMPMTETADKVTASGTAGGQKVTGDRSGAYYGMTGAEAGDCKTITGTSYTGTEQFQFCSVDEQNEMKVRQRKGANPSISGVQPGPQGLTGAQKGACELVTGSHYQGGDQTAMVCDSTNAAAPGESDFPAMIGQAQPAFSTNEVEPMVDEGSKITGDGWDRGSKVTGTDGPWAAQRNASIRGVAGQSPMGASQYRPVNNEVPMSPITGSSGNTDTGAKVTLSGGARA,not soluble
5,MFENITAAPADPILGLADLFRADERPGKINLGIGVYKDETGKTPVLTSVKKAEQYLLENETTKNYLGIDGIPEFGRCTQELLFGKGSALINDKRARTAQTPGGTGALRVAADFLAKNTSVKRVWVSNPSWPNHKSVFNSAGLEVREYAYYDAENHTLDFDALINSLNEAQAGDVVLFHGCCHAPTGIDPTLEQWQTLAQLSVEKGWLPLFDFAYQGFARGLEEDAEGLRAFAAMHKELIVASSYSKNFGLYNERVGACTLVAADSETVDRAFSQMKAAILANYSNPPAHGASVVATILSNDALRAIWEQELTDMRQRIQRMRQLFVNTLQEKGANRDFSFIIKQNGMFSFSGLTKEQVLRLREEFGVYAVASGLVNVAGMTPDNMAPLCEAIVAVL,soluble
6,MRNFDLSPLYRSAIGFDRLFNHLENNQSQSNGGYPPYNVELVDENHYRIAIAVAGFAESELEITAQDNLLVVKGAHADEQKERTYLYQGIAERNFERKFQLAENIHVRGANLVNGLLYIDLERVIPEAKKPRRIEINLEHHHHHH,soluble
7,MSLKYKRIVFKVGTSSITHSDGSLSRGKIQTITCQLAALHHAGHELVLVSSGAVAAGFGALGFKKRPVKIADKQASAAVGQGLLMEEYTANLSSDGIVSAQILLSRADFADKRRYQNAGGALSVLLQRRAVPIINENDTVSVEELKIGDNDTLSAQVAAMIQADLLVLLTDIDGLYTGNPNSNPDAVRLDKIEHINHEIIEMAGGSGSANGTGGMLTKIKAATIAAESGVPVYICSSLKPDALAEAAEHQADGSFFVPRAKGLRTQKQWLAFYSESRGSVYVDEGAEHALSEQGKSLLMSGIAGIEGHFSRMDTVTVYSKATKQPLGKGRVLFGSAAAEDLLKSRKAKGVFIHRDDWISITPEIRLLLTEFEGHHHHHH,soluble
8,MGSDKIHHHHHHMPTLPAYPLFREHSLLYLAHMGISKLKPSNSATTLLQLAREVLAIEAREVQALAGRLDQSFVNAVELILQCRGRVVVTGIGKSGHIGNKIAATLASTGTPAFFMHPAEASHGDLGMITRDDVVIALSNSGEADELLALLPPLKRIGTPIISISGNRHSTLSKAADIFLDAHVSQEACPLGLAPTASTTAALALGDALAVTLLDQRGFSREDFALAHPGGSIGRRLLLHVQDVMRSGDDIPAVSVSSSLKDGLLEMSRKGLGMTAVLDAADKPVGIFTDGDLRRAFEAGIDINGTRMADVMHAHPRSILPGQLAVDALALMEQYSISSLLVVDQQGNLVGALNMHDLLMAKVV,not soluble
9,MEQLLERIFDELAFLRANMATKDDVAALKDDIRALESRASHIEQTMATKDDIAAMDKRIGQIEQTMATKDDIASIEQRMATKDDVADIPFIKQAVMETLETINEIPAIKQTLAEALRKLDDVIASQARQELVLQSLAFRSLEQENEIRALKAK,not soluble
10,MKKILLLILITGLFSFGNSKNKIPTRKFTSVKISGPRYRLEGAFGILSSKENSSYMNNRFISNSISLLSEWKVQVNEKIDATFGPKVTLDFSFSIFKGLYTYKPNLNLGAEANFNYRIKEKMKVYGGVEIGTGVGISIENANIHKTILTTISKISVGVKINDKYNIGVYLGNNIKGMLGIEAGYTF,not soluble
11,MKLVILLSFVATVAVFAAPSAPAGLEEKLRALQEQLYSLEKENGVDVKQKEQPAAADTFLGFVPQKRMVAWQPMKRSMINEDSRAPLLHAIEARLAEVLRAGERLGVNPEEVLADLRARNQFQ,not soluble
12,MEEQREALRKIIKTLAVKNEEIQSFIYSLKQMLLNVEANSAKVQEDLEAEFQSLFSLLEELKEGMLMKIKQDRASRTYELQNQLAACTRALESSEELLETANQTLQAMDSEDFPQAAKQIKDGVTMAPAFRLSLKAKVSDNMSHLMVDFAQERQMLQALKFLPVPSAPVIDLAESLVADNCVTLVWRMPDEDSKIDHYVLEYRRTNFEGPPRLKEDQPWMVIEGIRQTEYTLTGLKFDMKYMNFRVKACNKAVAGEFSEPVTLETPAFMFRLDASTSHQNLRVDDLSVEWDAMGGKVQDIKAREKDGKGRTASPINSPARGTPSPKRMPSGRGGRDRFTAESYTVLGDTLIDGGEHYWEVRYEPDSKAFGVGVAYRSLGRFEQLGKTAASWCLHVNNWLQVSFTAKHANKVKVLDAPVPDCLGVHCDFHQGLLSFYNARTKQVLHTFKTRFTQPLLPAFTVWCGSFQVTTGLQVPSAVRCLQKRGSATSSSNTSLT,soluble
13,MGALESLRGNADLAYILSMEPCGHCLIINNVNFCRESGLRTRTGSNIDCEKLRRRFSSLHFMVEVKGDLTAKKMVLALLELARQDHGALDCCVVVILSHGCQASHLQFPGAVYGTDGCPVSVEKIVNIFNGTSCPSLGGKPKLFFIQACGGEQKDHGFEVASTSPEDESPGSNPEPDATPFQEGLRTFDQLDAISSLPTPSDIFVSYSTFPGFVSWRDPKSGSWYVETLDDIFEQWAHSEDLQSLLLRVANAVSVKGIYKQMPGCFNFLRKKLFFKTSHHHHHH,soluble
14,MSLENKIIFVAGACGRIGKALCEKILLSKGIPILADINKECLNKLQENLETNFKTKLLSLELDITKQESLQTALQKSQERYGKIDAFVNSSYPFGKDWGKTPYYELKYEQICESLNLHLAGFMLAAQEFVKFFKQQGYGNIINLSSIMGVYAPKFENYEGTSMQSSLEYSVIKAGINHMSSWLAKELFNQNIRVNTLASGGILDNQNELFLKAYRKCCASKGMLDADDICGTLVFLLSDESKFITGQTLVVDDGWGLEGHHHHHH,soluble
15,MGSDKIHHHHHHAQQLNVQGDLVSSYVWRGMYQTGASIQPTLGFSVGNFSLTAWGSTDFDGTSASAGAAAKEIDLTAAYTLGRSGLTVSVADLWWAGQGARKYFNFKSHETAHHFEAGVAYTVQSETFPLSVAWYTMFAGQDKNAEGGQNYSSYVEFNYPFRVRMVDLNVTCGMVPYAAPQYNCDGFAVTNVALKGTTQIRFTDKFALPVFAQAVWNPRMEDAHLVFGITLKP,not soluble
16,MKKMFLILASAVVSLTACSKDSGDDDSPPIEKQPFNAVIKDGFKDENGVDLLPPRNIGNIKVGDYIPYNVTITDEVAEQEGETYRVVASTYDEGTHQERSVSYDIYLADKEDPTKMVLLENPEQLTFNKRGTYSFFIYPKEAGTYNLRFLLEKSVNNQKIGTSAIPIVTFNAVRITAYSHGYFTGKWKWEWSDSFIPILEEHSVNRRKFFFKIDDGSTEKDKYLQPEKAGIFYFTEYNGDNRGPLSFTVGAEYEYYPEQERTRAIQYLIFLLLK,not soluble
17,MSLATARTYLASLTVATEDRTGYDRDLFPHWITQSGTCNTRETILKRDGTNVVTDSSCAATSGSWYSPYDGATWSASSDVDIDHMVPLAEAWDSGADSWTTSRRQSFANDLTRPQLLAVTDNVNQSKGDQDPATWMPSRSAYRCTYVRAWVQVKYYYDLSVDSAEKSAMQGYLANCEGHHHHHH,not soluble
18,MAHHHHHHMDHRRSGLVLSLRYRCDGPVGTVETRRLTHVGTRSRARSAELARVRRALLVLLLPQRMKGLGQRLGDIRPREREGPGCRAQPWRASVVPRPARASLPPPKASGCFYAVHHHDKSSRLSVTATTAHDSSMRAPPSSVLRWTFTCVSSPRSTTAAAQTYHRPLHHPSQGFTTPRGRGRSAIHTHTHTHTHTHTHTHTHTHTHTRLSFNVRGPCEEHPHAPAACCIPLFLCCDAPAVSAAAAMSLQVNLLNNTFANPFMNAAGVMCTTTEELVAMTESASGSLVSKSCTPALREGNPTPRYQALPLGSINSMGLPNNGFDFYLAYAAEQHDYGKKPLFLSMSGLSMRENVEMCKRLAAVATEKGVILELNLSCPNVPGKPQVAYDFDAMRQCLTAVSEVYPHSFGVKMPPYFDFAHFDAAAEILNEFPKVQFITCINSIGNGLVIDAETESVVIKPKQGFGGLGGRYVLPTALANINAFYRRCPGKLIFGCGGVYTGEDAFLHVLAGASMVQVGTALQEEGPSIFERLTSELLGVMAKKRYQTLDEFRGKVRTLDGTAESTR,not soluble
19,MKQTTINHSVELVGIGLHKGVPVKLVLEPLGENQGIVFYRSDLGVNLPLKPENIVDTKMATVLGKDNARISTIEHLLSAVHAYGIDNLKISVDNEEIPIMDGSALTYCMLLDEAGIKELDAPKKVMEIKQAVEIRESDKFVKIEPDSQLSLNFTIDFNHPVIAKQAHHFVFSKTAYKEQVAKARTFGFLQEVNYLRSIGLAKGGSLNNCIVLDENSILNKEGLRCEKEFVCHKILDAMGDLMVLGMPVMGKYTSFSGSHKLNSMLVKAILADAKNYEVLIAADPAKEFALQKAFALEHHHHHH,not soluble
20,MGGIGRIGILGSGSWATALAKIILTSQPSINWFMRREEQAQGIKRTGRNPNYLRDAVFDPRKISFFTDSDLNSFFRASDVVVLVTPSPFIKSYLKRVRSSSMRDKLIINAIKGIVPDENVLVSEYLHDFCDVPNELIGVVSGPCHAEEVARERRSYLTVGCFDINKAKAMANVLRNDYVSCTTSQDVVGIEYASVLKNVYAIAAGICNGLQYGDNFQSVLMSNAIAEMNSFVNTVHLLEREITDSVYLGDLLVTAYSNYSRNRTFGNMIGKGYSVKSAQMEMEMIAEGYYGAKCVREVNKRYQVNMPIMNTVYEVLYEKRDAAEAITALTAHFK,not soluble

# Reference: the DeepSol protein solubility set
